# What was measured:
# [1] = target: rat relaxin family peptide receptor 2 (RXFP2) (rat) (UniProt Q5ECL0)
# [2] = target: rat relaxin family peptide receptor 2 (RXFP2) (rat) (UniProt Q5ECL0); remark: listed apart in the source
# [3] = target: human relaxin family peptide receptor 2 (RXFP2) (human) (UniProt Q8WXD0)
# [4] = target: human relaxin family peptide receptor 2 (RXFP2) (human) (UniProt Q8WXD0); remark: listed apart in the source
# [5] = target: human relaxin family peptide receptor 2 (RXFP2) (human) (UniProt Q8WXD0); remark: listed apart in the source
# [6] = target: rat relaxin family peptide receptor 2 (RXFP2) (rat) (UniProt Q5ECL0); remark: listed apart in the source
# [7] = target: human relaxin family peptide receptor 2 (RXFP2) (human) (UniProt Q8WXD0); remark: listed apart in the source
# [8] = target: rat RXFP1 (rat) (UniProt Q6R6I6)
# Sequence of rat RXFP1 (rat) (Q6R6I6 whole entry): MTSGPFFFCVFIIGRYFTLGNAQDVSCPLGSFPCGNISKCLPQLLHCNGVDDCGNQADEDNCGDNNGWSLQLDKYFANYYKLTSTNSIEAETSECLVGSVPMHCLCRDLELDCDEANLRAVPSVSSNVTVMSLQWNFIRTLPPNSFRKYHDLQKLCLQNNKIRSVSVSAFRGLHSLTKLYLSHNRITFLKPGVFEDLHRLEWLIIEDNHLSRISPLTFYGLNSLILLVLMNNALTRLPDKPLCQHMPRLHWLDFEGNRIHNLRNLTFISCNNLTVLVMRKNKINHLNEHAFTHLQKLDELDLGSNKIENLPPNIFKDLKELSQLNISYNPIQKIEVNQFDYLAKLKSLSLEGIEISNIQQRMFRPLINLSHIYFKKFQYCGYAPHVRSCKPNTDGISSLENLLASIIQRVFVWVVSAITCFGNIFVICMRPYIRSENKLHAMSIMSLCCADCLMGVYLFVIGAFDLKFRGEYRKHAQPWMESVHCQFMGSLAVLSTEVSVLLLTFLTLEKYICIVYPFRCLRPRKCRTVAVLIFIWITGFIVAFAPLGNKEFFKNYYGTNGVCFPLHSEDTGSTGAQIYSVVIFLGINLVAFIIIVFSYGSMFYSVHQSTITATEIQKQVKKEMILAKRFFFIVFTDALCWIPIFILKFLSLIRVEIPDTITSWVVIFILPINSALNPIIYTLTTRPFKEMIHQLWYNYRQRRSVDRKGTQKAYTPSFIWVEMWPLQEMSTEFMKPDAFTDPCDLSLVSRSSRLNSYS
# Sequence of Human INSL3 (insulin-like peptide 3) (ligand) (P51460 21-131): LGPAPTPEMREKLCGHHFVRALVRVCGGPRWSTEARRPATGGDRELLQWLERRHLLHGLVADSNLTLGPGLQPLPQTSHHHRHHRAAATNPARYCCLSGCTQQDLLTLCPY
# Sequence of human relaxin family peptide receptor 2 (RXFP2) (human) (Q8WXD0 whole entry): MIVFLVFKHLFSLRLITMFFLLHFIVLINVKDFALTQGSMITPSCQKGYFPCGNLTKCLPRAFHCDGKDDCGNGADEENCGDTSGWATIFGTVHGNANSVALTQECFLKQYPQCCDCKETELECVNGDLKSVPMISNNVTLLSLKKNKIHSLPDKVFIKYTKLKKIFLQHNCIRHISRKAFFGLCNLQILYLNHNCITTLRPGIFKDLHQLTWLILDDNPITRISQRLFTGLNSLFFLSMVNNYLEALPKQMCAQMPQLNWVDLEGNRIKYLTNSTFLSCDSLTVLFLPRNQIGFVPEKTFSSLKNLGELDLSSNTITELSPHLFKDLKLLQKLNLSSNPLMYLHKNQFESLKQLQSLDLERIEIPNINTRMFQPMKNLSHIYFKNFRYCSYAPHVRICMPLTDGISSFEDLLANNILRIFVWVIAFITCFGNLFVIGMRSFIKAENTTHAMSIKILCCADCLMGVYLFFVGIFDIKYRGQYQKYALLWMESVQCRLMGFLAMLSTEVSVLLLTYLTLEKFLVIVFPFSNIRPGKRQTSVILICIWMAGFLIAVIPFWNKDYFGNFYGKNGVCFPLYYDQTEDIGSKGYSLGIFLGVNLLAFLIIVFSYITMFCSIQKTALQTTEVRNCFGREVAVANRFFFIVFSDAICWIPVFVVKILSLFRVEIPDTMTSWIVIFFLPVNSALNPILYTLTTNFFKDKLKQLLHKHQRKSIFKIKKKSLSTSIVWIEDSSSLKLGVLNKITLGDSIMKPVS
# Sequence of rat relaxin family peptide receptor 2 (RXFP2) (rat) (Q5ECL0 entry or part of it): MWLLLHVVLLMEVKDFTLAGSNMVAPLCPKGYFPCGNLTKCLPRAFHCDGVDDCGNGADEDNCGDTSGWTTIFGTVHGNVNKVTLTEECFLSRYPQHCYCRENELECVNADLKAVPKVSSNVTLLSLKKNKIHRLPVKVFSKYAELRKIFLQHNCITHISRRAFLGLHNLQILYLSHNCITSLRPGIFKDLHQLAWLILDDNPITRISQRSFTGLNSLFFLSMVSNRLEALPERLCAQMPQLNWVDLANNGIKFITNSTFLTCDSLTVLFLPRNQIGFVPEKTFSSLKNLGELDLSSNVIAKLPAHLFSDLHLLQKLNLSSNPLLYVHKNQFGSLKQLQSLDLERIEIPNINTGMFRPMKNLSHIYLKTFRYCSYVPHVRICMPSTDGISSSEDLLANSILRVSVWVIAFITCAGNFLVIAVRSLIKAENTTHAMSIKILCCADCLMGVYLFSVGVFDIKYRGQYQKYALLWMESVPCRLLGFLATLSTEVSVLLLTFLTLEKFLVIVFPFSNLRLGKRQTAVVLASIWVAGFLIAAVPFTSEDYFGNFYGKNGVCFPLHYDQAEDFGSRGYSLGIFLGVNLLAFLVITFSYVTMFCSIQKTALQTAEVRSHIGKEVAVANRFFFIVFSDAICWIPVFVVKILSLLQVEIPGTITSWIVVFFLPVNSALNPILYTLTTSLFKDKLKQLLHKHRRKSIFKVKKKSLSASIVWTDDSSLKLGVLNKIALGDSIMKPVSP
# Sequence of INSL3 (species not stated for the stable HEK293 cAMP assays) (ligand) (P51460 21-131): as the sequence (P51460 21-131) above
# Sequence of relaxin (H2 Relaxin) (ligand) (P04090 25-185): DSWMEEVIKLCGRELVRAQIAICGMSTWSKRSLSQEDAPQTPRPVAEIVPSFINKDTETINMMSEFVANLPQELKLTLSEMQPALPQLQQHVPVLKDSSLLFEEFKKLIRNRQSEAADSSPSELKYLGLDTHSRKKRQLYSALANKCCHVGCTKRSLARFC
substance,measurement,setting,value
Human INSL3 (insulin-like peptide 3) (ligand),"EC50, INSL3-induced cAMP in HEK293 transiently expressing rat RXFP2 (BacMam)",[1],13 nM
same,"EC50, CYP11B1 mRNA expression after 48 h in H295R-rRXFP2",[2],0.3 nM
same,"EC50, CYP11B2 mRNA expression after 48 h in H295R-rRXFP2",[2],0.4 nM
same,"EC50, CYP11B1 mRNA expression after 48 h in H295R-hRXFP2",[3],1.3 nM
same,"EC50, CYP11B2 mRNA expression after 48 h in H295R-hRXFP2",[3],2 nM
same,"EC50, cAMP generation after 30 min in H295R stably expressing human RXFP2",[3],4 nM
same,"EC50, INSL3-induced intracellular calcium (FLIPR) in HEK293 Gα16 cells transiently expressing RXFP2",[4],13.4 nM
same,"EC50, INSL3-induced cAMP (HTRF) in HEK293 expressing human RXFP2 (BacMam)",[5],0.048 nM
INSL3 (species not stated for the stable HEK293 cAMP assays) (ligand),"EC50, INSL3-induced cAMP generation in HEK293-rRXFP2 cells (stable)",[6],8.4 nM
same,"EC50, INSL3-induced cAMP generation in HEK293-hRXFP2 (stable)",[7],2.9 nM
relaxin (H2 Relaxin) (ligand),"EC50, relaxin-induced cAMP generation in HEK293-rat RXFP1 (stable)",[8],29.5 nM

# From article PMC11162469, “Discovery of RXFP2 genetic association in resistant hypertensive men and RXFP2 antagonists for the treatment of resistant hypertension” (Scientific Reports, 2024)
